Source: PMC2290040 (The Journal of Cell Biology, 1992)

Experiments:
Assay in all cases: co-IP
[1] = target: T1, RHL-1 truncated at the carboxy terminus, product of 204 aa (rat, UniProt P02706 1-204, [35S]methionine label)
T1 sequence (looked up): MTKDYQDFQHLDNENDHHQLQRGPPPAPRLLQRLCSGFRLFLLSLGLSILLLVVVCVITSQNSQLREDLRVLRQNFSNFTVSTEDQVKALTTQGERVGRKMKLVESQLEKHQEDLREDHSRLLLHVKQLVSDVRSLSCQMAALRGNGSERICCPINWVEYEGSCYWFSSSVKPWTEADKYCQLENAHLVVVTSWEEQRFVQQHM

[2] = target: T2, RHL-1 truncated at the carboxy terminus, product of 260 aa (rat, UniProt P02706 1-260, [35S]methionine label)
T2 sequence (looked up): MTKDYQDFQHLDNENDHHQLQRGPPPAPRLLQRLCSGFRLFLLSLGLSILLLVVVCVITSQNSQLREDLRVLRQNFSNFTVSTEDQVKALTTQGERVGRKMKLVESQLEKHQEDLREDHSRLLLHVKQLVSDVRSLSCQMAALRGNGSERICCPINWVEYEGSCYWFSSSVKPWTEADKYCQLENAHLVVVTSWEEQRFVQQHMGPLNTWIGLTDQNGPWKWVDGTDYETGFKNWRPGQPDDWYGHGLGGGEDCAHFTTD

[3] = target: T3, RHL-1 truncated at the carboxy terminus, product of 267 aa (rat, UniProt P02706 1-267, [35S]methionine label)
T3 sequence (looked up): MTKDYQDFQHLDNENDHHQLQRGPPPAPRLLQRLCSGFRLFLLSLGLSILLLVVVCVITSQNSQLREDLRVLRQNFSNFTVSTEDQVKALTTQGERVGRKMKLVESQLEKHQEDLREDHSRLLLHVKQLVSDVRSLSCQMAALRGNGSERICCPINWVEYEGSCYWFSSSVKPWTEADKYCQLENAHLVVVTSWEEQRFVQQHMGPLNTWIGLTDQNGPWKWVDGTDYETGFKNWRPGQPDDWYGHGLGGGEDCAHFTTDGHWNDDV

B1: rat hepatic lectin subunit RHL-2/3 (subunit of the rat asialoglycoprotein receptor), full length (natural protein, UniProt P08290 1-301, looked up)
chain: MEKDFQDIQQLDSEENDHQLIGDEEQGSHVQNLRTENPRWGGQPPSRPFPQRLCSKFRLSLLALAFNILLLVVICVVSSQSMQLQKEFWTLKETLSNFSTTTLMEFKALDSHGGSRNDNLTSWETILEKKQKDIKADHSTLLFHLKHFPLDLRTLTCQLAFFLSNGTECCPVNWVEFGGSCYWFSRDGLTWAEADQYCQMENAHLLVINSREEQEFVVKHRGAFHIWIGLTDKDGSWKWVDGTEYRSNFKNWAFTQPDNWQGHEEGGSEDCAEILSDGLWNDNFCQQVNRWACERKRDITY
modifications: [35S]methionine label; glycosylated by the microsomes
percent of RHL-2/3 coimmunoprecipitated, relative to full-length RHL-1 [1]: 88% | percent of RHL-2/3 coimmunoprecipitated, relative to full-length RHL-1 [2]: 100% | percent of RHL-2/3 coimmunoprecipitated, relative to full-length RHL-1 [3]: 100%
